Source: PMC10223678

Molecular target: recombinant EGF (rEGF) protein with SV5 and 6xHis tags (human)
Experiment: ELISA; titration ELISA: plates coated with rEGF at 5 µg/mL (BSA coating for negative controls, at the maximum tested nanobody concentration), blocked with 3% skimmed milk, biotinylated nanobodies serially diluted 1 h at RT, detected with streptavidin-HRP; KD estimated by the fitting function of ref. 37; triplicates

B1: recombinant anti-EGF nanobody A8-1, biotinylated (VHH)
VHH: QVQLVESGGGSVQAGGSLRLSCTASGNSNYQYPHFDLGWFRQAPGQEREAVAAISSGGGRTYYADSVKGRFTISRDNAKNTVTLQMNNLKPEDTAIYYCAAVGSRTRNYRYWGQGTQVTVS
  Kd: 240 nM

B2: recombinant anti-EGF nanobody D6-4, biotinylated (VHH)
VHH: QVQLVESGGGSVQAGGSLRLSCTASGTRRYKYNVFDLGWFRQAPGQEREAVAAISTGGGRTYYADSVKGRFTISRDNAKNTVTLQMNNLKPEDTAIYYCAARRTNNANFRYWGQGTQVTVS
  Kd: 370 nM
